Test results reported in patent US20080057063A1 (published 2008).
Residue numbers refer to the chain shown, from its start.

B1: sc 161 (antibody, V domains shown)
VH: EVQLVQSGAEVKKPGESLKISCKGSGYSFTSYWIGWVRQMPGKGLEWMGIIYPGDSDTRYSPSFQGQVTISADKSISTAYLQWSSLKASDTAMYYCARHGIAAAGFYYYYMDVWGQGTTVTVSS
VL: EIVLTQSPDTLSLSPGERASLSCRASQNVNRNYLVWYQQKPGQAPRLLIYGTSNRATGIPDRFSGSGSGTDFTLTISRLEPEDFAVYYCQQCGSLPFTFGPGTKVDIKR
B2: sc 298 (antibody, V domains shown)
VH: QVQLVESGGGVVQPGRSLRLSCAASGFTFSSYGMHWVRQAPGKGLEWVAVIWYGGSNKYYADSVKGRFTISRDNSKNTLYLQMNSLRAEDTAVYYCARDLAARRGDYYYYGMDVWGQGTTVTVSS
VL: SSELTQDPVVSVALGQTVRITCQGDSLRSYYLSWYQQKPGQAPVLVIYGKNNRPSGIPDRFSGSNSGNTASLTITGAQAEDEADYYCNSRDSSGNHLFGGGTKLTVL
B3: sc 277 (antibody, V domains shown)
VH: EVQLVQSGAEVKKPGESLKISCKGSGYSFPSYWIGWVRQMPGKGLEWMGIIYPGDSDTRYSPSFQGQVTISADKSISTAYLQWSSLKASDTAMYYCARHPMEDGMDVWGQGTTVTVSS
VL: SYELTQPPSVSVSPGQTARITCSGDALPKKYAFWYQQKSGQAPVLVIYDDNKRPSGIPERFSGSSSGTMATLTITGAQVEDEADYYCYSTDSSGHHVFGGGTKLTVL
B4: sc 254 (antibody, V domains shown)
VH: QVQLQESGPGLVKPSQTLSLTCTVSGGSISSGGYYWSWIRQHPGKGLEWIGYIYYSGSTYYNPSLKSRVTISVDTSKNQFSLKLSSVTAADTAMYYCARYRGPAAGRGDFYYFGMDVWGQGTTVTVSS
VL: DIVMTQTPLSLSVTPGQPASIFCKSSQSLLNSDGKTYLCWYLQKPGQPPQLLIYEVSNRFSGVPDRFSGSGSGTDFTLKISRVEAEDVGVYYCMQGIQLPWAFFGQGTKVEIK
B5: sc 58 (antibody, V domains shown)
VH: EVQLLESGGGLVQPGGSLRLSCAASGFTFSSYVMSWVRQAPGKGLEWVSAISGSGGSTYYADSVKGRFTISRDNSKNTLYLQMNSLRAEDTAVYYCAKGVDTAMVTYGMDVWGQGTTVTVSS
VL: SYELTQPPSVSVSPGQTARITCSGDALPKKYAYWYQQKSGQAPVLVIYDDSKRPSGIPERFSGSSSGTMATLTISGAQVEDEADYYCYSTDSSGNHRVFGGGTKLTVL
notes: also called sc 058
B6: sc 264 (antibody, V domains shown)
VH: QVQLQESGPGLVKPSQTLSLTCTVSGGSISSGGYYWSWIRQHPGKGLEWIGYIYYSGRTYNNPSLKSRVTISVDTSKNQFSLKLSSVTAADTAVYYCARVATGRGDYHFYAMDVWGQGTTVTVSS
VL: SYELTQPSSVSVSPGQTARITCSGDVLAKKSARWFHQKPGQAPVLVIYKDSERPSGIPERFSGSSSGTTVTLTISGAQVEDEAAYYCYSAADNNLVFGGGTKLTVL
notes: RGD in heavy chain CDR3
B7: sc 97 (antibody, V domains shown)
VH: EVQLVQSGAEVKKPGESLKISCKGSGYSFTSYWIGWVRQMPGKGLEWMGIIYPGDSDTRYSPSFQGQVILSADKSISTAYLQWSSLKASDTAMYYCARHDESSGYYYVFDIWGQGTMVTVSS
VL: SYELTQPPSVSVSPGQTARITCSGDALPKKYAYWYQQKSGQAPVLVIYEDIKRPSGIPERFSGSSSGTMATLTISGAQVEDEADYYCYSTDSSGNHWVFFGGGTKLTVL
notes: also called sc 097
B8: sc 320 (antibody, V domains shown)
VH: EVQLVESGGGLVKPGGSLRLSCAASGYTFTNYIMHWVRQAPGKGLEWVSSISISSSYIYYADSVKGRFTISRDNAKNSLYLQMNSLRAEDTAVYYCARDPVPLERRDYYYGMDVWGQGTTVTVSS
VL: QSVLTQPPSMSAAPGQKVTISCSGSSSNIGNNYVSWYQQLPGTAPKLLIYDNNKRPSGIPDRFSGSKSGTSATLGITGLQTGDEADYYCGTWDSSLSAGVFGGGTKLTVL
B9: sc 374 (antibody, V domains shown)
VH: B2 VH with G54D, D99T, L100E, A101G, A102I, R103A, R104A, G105R, D106L
VL: not shown
B10: sc 49 (antibody, V domains shown)
VH: QVQLQESGPGLVKPSQTLSLTCTVAGGSIRSGDYYWSWIRQHPGKGLEWIGNIYYSGSTYYNPSLKSRITISVATSRNQFSLKLTSVTAADTAVYYCARGGAITIFGVFDYWGQGTLVTVSS
VL: not shown
notes: also called sc 049

The binders below were run against T1, human αVβ6 integrin on cells (human, UniProt P06756 31-1048; P18564 22-788) (assay: cell-based or functional assay).
T1 sequence (P06756 31-1048, chain 1 of 2): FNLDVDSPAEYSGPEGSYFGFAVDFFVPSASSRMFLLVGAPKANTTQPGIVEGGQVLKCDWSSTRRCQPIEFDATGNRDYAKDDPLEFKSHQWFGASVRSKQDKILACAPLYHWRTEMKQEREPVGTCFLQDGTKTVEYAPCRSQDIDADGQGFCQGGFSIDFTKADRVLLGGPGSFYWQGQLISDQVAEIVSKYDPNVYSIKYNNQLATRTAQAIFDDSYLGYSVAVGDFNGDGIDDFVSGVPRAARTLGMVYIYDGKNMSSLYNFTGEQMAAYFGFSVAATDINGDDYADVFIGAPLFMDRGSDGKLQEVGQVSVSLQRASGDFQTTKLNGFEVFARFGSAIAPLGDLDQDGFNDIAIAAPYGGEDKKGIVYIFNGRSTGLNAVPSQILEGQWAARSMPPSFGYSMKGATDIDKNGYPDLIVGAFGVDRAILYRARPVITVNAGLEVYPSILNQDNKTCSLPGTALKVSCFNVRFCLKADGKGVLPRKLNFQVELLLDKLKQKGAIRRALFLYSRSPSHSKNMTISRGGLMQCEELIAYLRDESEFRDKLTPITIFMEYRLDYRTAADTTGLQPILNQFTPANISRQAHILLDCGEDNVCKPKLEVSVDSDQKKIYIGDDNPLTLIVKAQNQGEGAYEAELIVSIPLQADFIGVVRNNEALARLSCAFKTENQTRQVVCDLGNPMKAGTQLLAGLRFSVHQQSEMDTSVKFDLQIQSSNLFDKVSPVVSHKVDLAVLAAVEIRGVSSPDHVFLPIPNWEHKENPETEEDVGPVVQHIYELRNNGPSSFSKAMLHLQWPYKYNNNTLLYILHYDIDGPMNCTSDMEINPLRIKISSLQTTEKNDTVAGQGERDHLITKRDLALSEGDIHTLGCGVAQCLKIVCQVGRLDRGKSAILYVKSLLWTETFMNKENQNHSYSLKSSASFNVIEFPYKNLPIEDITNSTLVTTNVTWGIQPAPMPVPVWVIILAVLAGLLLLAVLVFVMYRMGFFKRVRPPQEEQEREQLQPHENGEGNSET
T1 sequence (P18564 22-788, chain 2 of 2): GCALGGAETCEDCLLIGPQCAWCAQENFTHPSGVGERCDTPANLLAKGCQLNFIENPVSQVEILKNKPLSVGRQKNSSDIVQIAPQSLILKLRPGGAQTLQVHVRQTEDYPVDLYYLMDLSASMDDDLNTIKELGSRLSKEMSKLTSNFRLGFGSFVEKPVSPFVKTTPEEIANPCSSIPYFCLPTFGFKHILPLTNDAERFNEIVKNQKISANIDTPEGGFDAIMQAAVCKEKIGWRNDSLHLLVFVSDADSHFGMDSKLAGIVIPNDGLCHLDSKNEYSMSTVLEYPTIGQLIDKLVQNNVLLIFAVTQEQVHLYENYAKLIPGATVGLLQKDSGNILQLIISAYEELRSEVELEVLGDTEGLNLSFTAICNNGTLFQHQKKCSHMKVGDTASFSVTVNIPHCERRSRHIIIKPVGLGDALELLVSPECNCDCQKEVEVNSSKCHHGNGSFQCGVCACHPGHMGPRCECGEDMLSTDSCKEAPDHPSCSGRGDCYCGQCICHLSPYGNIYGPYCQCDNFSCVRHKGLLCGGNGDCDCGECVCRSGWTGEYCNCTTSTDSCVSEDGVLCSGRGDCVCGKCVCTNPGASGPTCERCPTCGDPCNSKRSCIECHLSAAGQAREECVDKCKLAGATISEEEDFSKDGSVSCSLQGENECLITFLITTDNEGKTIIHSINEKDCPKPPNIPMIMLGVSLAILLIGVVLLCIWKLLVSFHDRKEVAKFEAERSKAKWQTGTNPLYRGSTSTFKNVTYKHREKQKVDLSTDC

Assay 1 % Inhibition (HT29 adhesion to TGFβLAP)	Assay 2 % Inhibition (HT29 adhesion to TGFβLAP)	Average % Inhibition (HT29 adhesion to TGFβLAP)	Binder
98%	106%	102%	B1
98%	102%	100%	B2
98%	101%	100%	B3
98%	106%	102%	B4
77%	46%	62%	B5

Target: T1, human αVβ6 integrin on cells
Assay: cell-based or functional assay
Remark: another data set of the same source

Estimated IC50, n = 1 (HT29 adhesion to TGFβLAP)	Estimated IC50, n = 2 (HT29 adhesion to TGFβLAP)	Estimated IC50, n = 3 (HT29 adhesion to TGFβLAP)	Binder
2410 ng/mL	137 ng/mL	–	B1
29 ng/mL	25 ng/mL	33 ng/mL	B2
1460 ng/mL	540 ng/mL	720 ng/mL	B3
63 ng/mL	37 ng/mL	37 ng/mL	B4
4060 ng/mL	2030 ng/mL	3260 ng/mL	B5

What follows are binders tested against T2, human αV on parental A375M cells, which express αVβ3 and αVβ5, but not αVβ6 (human, UniProt P06756 31-1048) (assay: cell-based or functional assay).
T2 sequence (P06756 31-1048 A375M): as the sequence (P06756 31-1048, chain 1 of 2) above, with A345M counted along it

Percent Inhibition (A375M adhesion to osteopontin peptide, 5 µg/ml)	Binder
9%	B2
3%	B6

What follows are binders tested against T3, α4β1 integrin (on J6.77 cells) (UniProt P13612 34-1032; P05556 21-798, limits assumed) (assay: cell-based or functional assay).

Percent Inhibition (J6.77 adhesion to CS-1 peptide of fibronectin, 5 ug/ml)	Binder
-7%	B7
12%	B1
-7%	B2
-8%	B6
-17%	B3
-8%	B8
0%	B4
-14%	B5

These binders were tested against T4, α5β1 integrin (on K562 cells) (UniProt P08648 42-1049; P05556 21-798, limits assumed) (assay: cell-based or functional assay).

Percent Inhibition (K562 adhesion to FN9-10 peptide of fibronectin, 5 µg/ml)	Binder
2%	B2
-4%	B6
-9%	B4

Target: T3, α4β1 integrin (on J6.77 cells)
Assay: cell-based or functional assay
Remark: another data set of the same source

Percent Inhibition (J6.77 adhesion to CS-1 peptide of fibronectin, 5 ug/ml)	Binder
-30%	B6

Target: T4, α5β1 integrin (on K562 cells)
Assay: cell-based or functional assay
Remark: another data set of the same source

% Inhibition (K562 adhesion to fibronectin)	Binder
3%	B6

Each binder was assayed against T2, human αV on parental A375M cells, which … (assay: FACS, parental A375M cells (αVβ3, αVβ5)).
Protocol: For this assay, cross-reactivity was tested on the supernatants using FACS analysis on parental A375M cells, which express αVβ3 and αVβ5, but not αVβ6.
The assays were performed as follows. […] The cells were then pelleted, the supernatant discarded, and resuspended in FACS buffer and incubated for 30 minutes at 37° C. Cells were then washed twice with FACS buffer and resuspended in a final volume of 100 μL FACS buffer per well.
Approximately 100,000 cells total, comprising a 50:50 mix of CFSE-labeled A375M cells and transfected 293 cells, were used in each reaction as follows. 100 μL of CFSE-labeled A375M cells and 100 μL of 293 cells were dispensed into a V-bottom plate. The cells in the plate were pelleted at 1500 rpm for 3 minutes, and then resuspended in 100 μL FACS buffer. The pelleting step was repeated, and the FACS buffer supernatant was removed. The harvested antibody-containing supernatants, or control primary antibodies were added in a volume of 50 μL and the cells were resuspended. […] The plate was incubated on ice for 45 minutes, after which 100 μL FACS buffer was added to dilute the primary antibody. The cells were then pelleted by centrifuging at 1500 rpm for 3 minutes, and the pellet was resuspended in 100 μL FACS buffer. The pelleting step was repeated, and the FACS buffer supernatant was removed. Cells were then resuspended in the appropriate secondary antibody (5 μg/ml) with 7AAD dye (10 μg/ml), and stained on ice for 7 minutes. Then 150 μL of FACS buffer was added and the cells were pelLeted at 1500 rpm for 3 minutes, after which the cells were washed in 100 μL FACS buffer, pelleted, and then resuspended in 250 μL buffer and added to FACS tubes.

% Cells Shifted	GeoMean	Binder
24%	1.84	B7
11%	16.7	B1
45%	2.14	B2
–	2.14	B9
46%	2.35	B6
23%	1.86	B3
15%	23.2	B8
20%	1.74	B10
18%	1.78	B5

The binders below were run against T5, cynomolgus αVβ6 on cells (cynomolgus, UniProt A0A2K5WCD3 31-1048; A0A2K5TZ36 22-787) (assay: FACS, HEK-293 transfected with cynomolgus αV and β6).
T5 construct: whole, on cells; also called macaque αVβ6; Mac AVB6
Protocol: Cross-reactivity of the antibody-containing supernatants to macaque αVβ6 was tested on the supernatants using FACS analysis on HEK-293 cells transiently transfected with cynomolgus αV and cynomolgus β6.
HEK-293 cells were transiently transfected with cynomolgus αV and cynomolgus β6. After 48 hours, the cells were collected and resuspended in FACS buffer to reach a final concentration of approximately 50,000 cells in 100 μL.
Approximately 100,000 cells total, comprising a 50:50 mix of CFSE-labeled A375M cells and transfected 293 cells, were used in each reaction as follows. 100 μL of CFSE-labeled A375M cells and 100 μL of 293 cells were dispensed into a V-bottom plate. The cells in the plate were pelleted at 1500 rpm for 3 minutes, and then resuspended in 100 μL FACS buffer. The pelleting step was repeated, and the FACS buffer supernatant was removed. The harvested antibody-containing supernatants, or control primary antibodies were added in a volume of 50 μL and the cells were resuspended. […] The plate was incubated on ice for 45 minutes, after which 100 μL FACS buffer was added to dilute the primary antibody. The cells were then pelleted by centrifuging at 1500 rpm for 3 minutes, and the pellet was resuspended in 100 μL FACS buffer. The pelleting step was repeated, and the FACS buffer supernatant was removed. Cells were then resuspended in the appropriate secondary antibody (5 μg/ml) with 7AAD dye (10 μg/ml), and stained on ice for 7 minutes. Then 150 μL of FACS buffer was added and the cells were pelLeted at 1500 rpm for 3 minutes, after which the cells were washed in 100 μL FACS buffer, pelleted, and then resuspended in 250 μL buffer and added to FACS tubes. Samples were analyzed on a high throughput FACS machine and analyzed using Cell Quest Pro software.

% Cells Shifted	GeoMean	Binder
14%	33	B1
53%	63.1	B2
–	61.8	B9
35%	33.4	B3
–	78.5	B4

These binders were tested against T1, human αVβ6 integrin on cells (assay: FMAT, HEK 293 cells overexpressing αVβ6, supernatant).

FMAT Count	FMAT FL1	FMAT FL1 × Count	Binder
23	725	16700	B1
102	2140	218000	B2
28	382	10700	B3
174	9180	1.6e+06	B4

Each binder was assayed against T6, soluble αVβ6 (human, UniProt P06756 31-992; P18564 22-709) (assay: Biacore, mAb captured on anti-human IgG, soluble αVβ6 injected, 1:1 fit).
T6 construct: extracellular domain; also called soluble αVβ6 protein; soluble antigen
T6 sequence (P06756 31-992, chain 1 of 2): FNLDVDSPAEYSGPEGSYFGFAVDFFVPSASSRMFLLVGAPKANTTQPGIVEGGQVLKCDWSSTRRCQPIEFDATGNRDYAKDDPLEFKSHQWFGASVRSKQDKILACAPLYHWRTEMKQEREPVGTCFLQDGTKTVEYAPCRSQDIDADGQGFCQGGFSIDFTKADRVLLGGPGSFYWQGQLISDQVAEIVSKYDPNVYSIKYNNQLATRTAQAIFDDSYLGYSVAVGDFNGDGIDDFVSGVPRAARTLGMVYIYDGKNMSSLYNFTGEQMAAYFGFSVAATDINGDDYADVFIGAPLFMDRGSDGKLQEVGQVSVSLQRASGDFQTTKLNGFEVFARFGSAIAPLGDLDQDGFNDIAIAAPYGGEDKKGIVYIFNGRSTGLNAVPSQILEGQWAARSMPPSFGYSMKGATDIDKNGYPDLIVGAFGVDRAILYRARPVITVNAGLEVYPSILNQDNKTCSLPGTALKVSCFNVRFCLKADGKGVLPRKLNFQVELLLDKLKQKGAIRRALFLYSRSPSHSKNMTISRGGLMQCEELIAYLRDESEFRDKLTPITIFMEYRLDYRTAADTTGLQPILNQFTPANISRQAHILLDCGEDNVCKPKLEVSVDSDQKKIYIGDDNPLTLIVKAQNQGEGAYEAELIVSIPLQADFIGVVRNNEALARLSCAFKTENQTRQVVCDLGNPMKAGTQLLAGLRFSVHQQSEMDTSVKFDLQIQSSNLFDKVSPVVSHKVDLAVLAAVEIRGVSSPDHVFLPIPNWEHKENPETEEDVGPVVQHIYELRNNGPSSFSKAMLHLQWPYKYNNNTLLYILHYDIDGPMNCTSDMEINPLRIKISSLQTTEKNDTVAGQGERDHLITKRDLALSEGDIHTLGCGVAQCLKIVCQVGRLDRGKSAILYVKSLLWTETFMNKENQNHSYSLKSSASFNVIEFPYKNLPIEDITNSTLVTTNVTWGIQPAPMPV
T6 sequence (P18564 22-709, chain 2 of 2): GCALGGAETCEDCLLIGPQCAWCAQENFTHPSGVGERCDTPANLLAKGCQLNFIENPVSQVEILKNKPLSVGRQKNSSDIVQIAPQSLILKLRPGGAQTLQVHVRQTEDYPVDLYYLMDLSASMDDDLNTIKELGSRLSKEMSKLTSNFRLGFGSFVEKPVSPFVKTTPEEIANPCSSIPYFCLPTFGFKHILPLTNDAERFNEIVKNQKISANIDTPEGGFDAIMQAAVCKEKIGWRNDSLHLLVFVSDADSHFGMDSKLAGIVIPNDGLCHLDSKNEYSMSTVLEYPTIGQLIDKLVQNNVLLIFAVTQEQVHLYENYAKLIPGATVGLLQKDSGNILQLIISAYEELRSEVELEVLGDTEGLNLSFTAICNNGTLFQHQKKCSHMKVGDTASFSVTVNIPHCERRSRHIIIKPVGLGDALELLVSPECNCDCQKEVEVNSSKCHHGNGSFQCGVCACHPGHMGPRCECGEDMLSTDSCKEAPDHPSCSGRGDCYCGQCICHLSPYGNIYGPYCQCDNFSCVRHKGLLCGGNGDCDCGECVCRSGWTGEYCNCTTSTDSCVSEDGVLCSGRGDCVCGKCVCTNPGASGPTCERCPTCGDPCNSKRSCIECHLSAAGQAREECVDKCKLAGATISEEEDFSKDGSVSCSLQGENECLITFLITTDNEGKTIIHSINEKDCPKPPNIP
Protocol: The Biacore analysis was performed as follows. A high-density goat α human IgG antibody surface over two CM5 Biacore chips was prepared using routine amine coupling. Each mAb was diluted in degassed HBS-P running buffer containing 100 μg/ml BSA, 1 mM MgCl₂, and 1 mM CaCl₂ to a concentration of approximately 1 μg/mL. […] A 4-minute wash step at 50 μL/min followed to stabilize the mAb baseline.
A 10-minute dissociation followed each antigen injection. The antigen samples were prepared in the HBS-P running described above. All samples were randomly injected in triplicate with several mAb capture/buffer inject cycles interspersed for double referencing. […] A flow rate of 50 μL/min was used for all antigen injection cycles.
The data were then fit to a 1:1 interaction model with the inclusion of a term for mass transport using CLAMP.

Kd	koff	kon	Binder
21 nM	0.00118 s⁻¹	56500 M⁻¹ s⁻¹	B2
34.9 nM	–	–	B4
